Paper PMC10003648, “Polymer-Degrading Enzymes of Pseudomonas chloroaphis PA23 Display Broad Substrate Preferences” (International Journal of Molecular Sciences, 2023)

Test system: CCCCCCCC(=O)Oc1ccc([N+](=O)[O-])cc1
Assay: purified protein
Assay type: biochemical, Pseudomonas chlororaphis
Conditions: optimal assay conditions (optimum pH 6.0, 50 °C), 0.1-3.0 mmol/L substrate

LIP4 (Pseudomonas chlororaphis)
Km: 333 µM
